Experimental data: publication PMC9797058

How the values were obtained:
[1] = biological target: N-terminally His-tagged Pasteurella multocida toxin (PMT) (Pasteurella multocida) (UniProt P17452); experiment: ELISA; solid-phase binding assay; His-PMT coated at 10 ug/mL (500 ng/well) on 96-well Maxisorb plates at 4 C overnight; LRP1 cluster 2, 3 or 4 at 0.02-500 nM, RT, 2 h; TBS with 2 mM CaCl2; bound ligand detected with goat anti-human IgG-HRP
LRP1 (Homo sapiens) = LRP1 (Homo sapiens) (UniProt Q07954); details: cited from earlier work

Chain of UniProt P17452 (P17452 whole entry): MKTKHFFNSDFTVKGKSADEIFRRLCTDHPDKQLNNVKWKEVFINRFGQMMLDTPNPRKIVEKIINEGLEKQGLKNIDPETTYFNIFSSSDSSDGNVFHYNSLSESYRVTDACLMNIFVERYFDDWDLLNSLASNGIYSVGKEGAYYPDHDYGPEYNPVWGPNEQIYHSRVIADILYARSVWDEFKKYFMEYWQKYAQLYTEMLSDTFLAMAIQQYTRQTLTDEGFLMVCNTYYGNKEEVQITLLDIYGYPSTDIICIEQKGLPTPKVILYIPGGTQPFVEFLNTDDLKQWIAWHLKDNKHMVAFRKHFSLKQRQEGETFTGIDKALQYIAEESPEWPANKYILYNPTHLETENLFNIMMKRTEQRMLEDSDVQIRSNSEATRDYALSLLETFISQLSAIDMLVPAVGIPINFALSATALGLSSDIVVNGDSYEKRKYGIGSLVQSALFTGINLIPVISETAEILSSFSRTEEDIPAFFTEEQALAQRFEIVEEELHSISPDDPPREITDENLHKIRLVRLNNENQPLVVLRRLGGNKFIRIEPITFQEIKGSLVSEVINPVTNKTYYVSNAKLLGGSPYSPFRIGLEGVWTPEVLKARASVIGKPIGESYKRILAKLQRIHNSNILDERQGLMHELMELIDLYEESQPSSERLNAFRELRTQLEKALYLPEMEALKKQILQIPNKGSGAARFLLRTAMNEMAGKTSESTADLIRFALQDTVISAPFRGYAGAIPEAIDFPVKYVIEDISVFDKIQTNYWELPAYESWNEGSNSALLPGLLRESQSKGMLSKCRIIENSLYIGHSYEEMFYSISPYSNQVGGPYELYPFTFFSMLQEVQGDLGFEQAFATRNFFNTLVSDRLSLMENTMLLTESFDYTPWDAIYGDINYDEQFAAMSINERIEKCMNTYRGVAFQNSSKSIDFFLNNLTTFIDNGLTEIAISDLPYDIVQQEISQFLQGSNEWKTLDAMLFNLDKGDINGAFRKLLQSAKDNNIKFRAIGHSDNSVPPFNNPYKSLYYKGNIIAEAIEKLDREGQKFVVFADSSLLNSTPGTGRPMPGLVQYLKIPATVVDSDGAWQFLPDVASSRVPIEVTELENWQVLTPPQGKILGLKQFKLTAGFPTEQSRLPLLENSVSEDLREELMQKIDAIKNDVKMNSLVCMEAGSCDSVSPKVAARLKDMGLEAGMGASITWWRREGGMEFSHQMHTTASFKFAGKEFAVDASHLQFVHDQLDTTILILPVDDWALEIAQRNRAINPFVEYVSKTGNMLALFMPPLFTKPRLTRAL

Row | Substance | Kd [1] | Kd (LRP1 (Homo sapiens))
1 | LRP1 cluster 4 (commercially available extracellular domain) (from UniProt Q07954 20-4544) (domain or fragment) | 2.28 nM | –
2 | Pseudomonas exotoxin A (from UniProt P11439) | – | 5.2 nM
3 | LRP1 cluster 2 (commercially available extracellular domain) (from UniProt Q07954 20-4544) (domain or fragment) | 41.6 nM | –
